Results taken from the supplement of paper PMC10065799, “High-throughput profiling of sequence recognition by tyrosine kinases and SH2 domains using bacterial peptide display” (eLife, 2023).
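Further: 11-residue human phosphosite peptides and single-mutation variants displayed on the E. coli surface, counted by deep sequencing, each peptide's frequency after selection divided by its frequency in the unselected input library; frequency after pTyr selection over input frequency; kinase dosed for 20-30% of maximal phosphorylation in three min.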

The sequences below were run against FGFR3 (UniProt P22607) (assay: phosphorylation enrichment, bacterial display (enrichment ratio); higher = better substrate or ligand; peptides without Tyr show the background).
Sequence of FGFR3 (P22607 whole entry, looked up): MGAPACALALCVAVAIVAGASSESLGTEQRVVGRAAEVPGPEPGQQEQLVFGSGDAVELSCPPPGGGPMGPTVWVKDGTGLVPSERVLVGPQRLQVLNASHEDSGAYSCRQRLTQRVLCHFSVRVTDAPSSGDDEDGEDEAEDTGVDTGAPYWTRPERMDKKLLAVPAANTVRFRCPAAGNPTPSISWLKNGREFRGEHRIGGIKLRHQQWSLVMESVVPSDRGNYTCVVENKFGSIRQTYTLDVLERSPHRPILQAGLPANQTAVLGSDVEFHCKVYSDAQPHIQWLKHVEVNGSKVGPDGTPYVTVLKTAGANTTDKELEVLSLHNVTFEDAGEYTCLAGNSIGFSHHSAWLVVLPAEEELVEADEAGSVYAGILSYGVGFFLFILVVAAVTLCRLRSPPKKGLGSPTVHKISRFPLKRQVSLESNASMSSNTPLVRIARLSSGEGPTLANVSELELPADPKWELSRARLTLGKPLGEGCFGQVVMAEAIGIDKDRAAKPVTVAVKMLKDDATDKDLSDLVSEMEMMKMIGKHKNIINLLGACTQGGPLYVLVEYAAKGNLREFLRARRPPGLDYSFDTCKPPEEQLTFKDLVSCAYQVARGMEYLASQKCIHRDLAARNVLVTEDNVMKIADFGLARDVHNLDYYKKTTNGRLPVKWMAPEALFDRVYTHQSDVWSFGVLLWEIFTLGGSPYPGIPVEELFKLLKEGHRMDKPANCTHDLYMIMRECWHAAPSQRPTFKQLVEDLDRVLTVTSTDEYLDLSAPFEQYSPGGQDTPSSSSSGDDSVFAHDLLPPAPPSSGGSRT
HRTLVYGGIFL [FBP1_Y259] was tested, and the phosphorylation enrichment was 1.01. Sequence AGADGYDYLAP [FOXL2_Y186_G187D] has a phosphorylation enrichment of 0.783. YGSSSSGGAGG [RPA2_Y14_Y14S] was tested, and the phosphorylation enrichment was 0.347. QTWKTYVRQQQ [SFI1_Y164] gave a phosphorylation enrichment of 0.738. In the case of DALDNYVVRGV [PCCA_Y473_I475V], the phosphorylation enrichment is reported as 0.466. Sequence GFAIVYGTIIL [GPR179_Y460] has a phosphorylation enrichment of 0.84. IYRAAYFGVYD [SLC25A4_Y191] gave a phosphorylation enrichment of 0.771. In the case of CTTSHYNFMCN [TP53_Y234_I232S_YF], the phosphorylation enrichment is reported as 0.637. Sequence LEAVSYSSRFA [RNLS_Y190_YF] has a phosphorylation enrichment of 0.496. In the case of FAKTQYPDVYA [CRX_Y63], the phosphorylation enrichment is reported as 0.478. In the case of MSRDVYSTDYY [NTRK2_Y702], the phosphorylation enrichment is reported as 2.72. QAYSWYQHQRA [NDST1_Y714_R709Q] gave a phosphorylation enrichment of 0.883. Work on DGTESYLTVSS [PLK1_Y462] yielded a phosphorylation enrichment of 0.59. Sequence IIWDSYTTNKM [GNB4_Y85] has a phosphorylation enrichment of 0.671. Sequence PMDTYYDSTRG [DYNC2H1_Y2231] has a phosphorylation enrichment of 2.3. QSLEPYTKQQL [STAT3_Y640_V637L] gave a phosphorylation enrichment of 0.603. DRLASYLDKVP [KRT14_Y129_R134P] was tested, and the phosphorylation enrichment was 0.689. With TTSQPYRRLCS [USH2A_Y534_C536R] the phosphorylation enrichment was 0.479. Sequence NSFKFYMSDDI [ATRX_Y204_C200S_YF] has a phosphorylation enrichment of 0.693. NGSKGYAFVHF [PABPC5_Y147_YF] showed a phosphorylation enrichment of 0.611. Sequence APTSGYQEFVH [IL4R_Y575] has a phosphorylation enrichment of 0.51. In the case of RQQQDYWLKDV [ANPEP_Y600_I603K], the phosphorylation enrichment is reported as 0.741. In the case of LVRPPYSYLAL [FOXI1_Y126_S129L], the phosphorylation enrichment is reported as 1.33. Work on NTTIHYNYMCN [TP53_Y234_C229N] yielded a phosphorylation enrichment of 0.803. In the case of ESDFTYSSSFE [SRPK2_Y427_YF], the phosphorylation enrichment is reported as 0.723. With GISDEYHVIRR [GCDH_Y398_H403R] the phosphorylation enrichment was 0.881. In the case of QMEKICTQQIQ [CCNB1IP1_Y125_Y125C], the phosphorylation enrichment is reported as 0.948. RFLRGYRQYAY [HLA-A_Y137_D140Y] showed a phosphorylation enrichment of 0.669. With DLVRPYVHKIL [SF3B1_Y570] the phosphorylation enrichment was 0.566.

Each sequence was assayed on Fer (mouse) in the same assay as above.
Sequence HRTLVYGGIFL [FBP1_Y259] has a phosphorylation enrichment of 1.01. In the case of AGADGYDYLAP [FOXL2_Y186_G187D], the phosphorylation enrichment is reported as 0.62. For YGSSSSGGAGG [RPA2_Y14_Y14S], the phosphorylation enrichment was 0.437. For QTWKTYVRQQQ [SFI1_Y164], the phosphorylation enrichment was 0.446. In the case of DALDNYVVRGV [PCCA_Y473_I475V], the phosphorylation enrichment is reported as 0.387. In the case of GFAIVYGTIIL [GPR179_Y460], the phosphorylation enrichment is reported as 0.514. IYRAAYFGVYD [SLC25A4_Y191] showed a phosphorylation enrichment of 0.937. With CTTSHYNFMCN [TP53_Y234_I232S_YF] the phosphorylation enrichment was 0.552. In the case of LEAVSYSSRFA [RNLS_Y190_YF], the phosphorylation enrichment is reported as 0.408. FAKTQYPDVYA [CRX_Y63] was tested, and the phosphorylation enrichment was 0.4. Sequence MSRDVYSTDYY [NTRK2_Y702] has a phosphorylation enrichment of 0.535. QAYSWYQHQRA [NDST1_Y714_R709Q] showed a phosphorylation enrichment of 6.78. In the case of DGTESYLTVSS [PLK1_Y462], the phosphorylation enrichment is reported as 0.487. Sequence IIWDSYTTNKM [GNB4_Y85] has a phosphorylation enrichment of 0.527. PMDTYYDSTRG [DYNC2H1_Y2231] showed a phosphorylation enrichment of 0.799. Work on QSLEPYTKQQL [STAT3_Y640_V637L] yielded a phosphorylation enrichment of 0.424. Work on DRLASYLDKVP [KRT14_Y129_R134P] yielded a phosphorylation enrichment of 0.499. For TTSQPYRRLCS [USH2A_Y534_C536R], the phosphorylation enrichment was 0.315. Work on NSFKFYMSDDI [ATRX_Y204_C200S_YF] yielded a phosphorylation enrichment of 0.488. With NGSKGYAFVHF [PABPC5_Y147_YF] the phosphorylation enrichment was 0.478. APTSGYQEFVH [IL4R_Y575] was tested, and the phosphorylation enrichment was 0.401. RQQQDYWLKDV [ANPEP_Y600_I603K] showed a phosphorylation enrichment of 0.495. For LVRPPYSYLAL [FOXI1_Y126_S129L], the phosphorylation enrichment was 1.23. Work on NTTIHYNYMCN [TP53_Y234_C229N] yielded a phosphorylation enrichment of 0.566. Work on ESDFTYSSSFE [SRPK2_Y427_YF] yielded a phosphorylation enrichment of 0.536. For GISDEYHVIRR [GCDH_Y398_H403R], the phosphorylation enrichment was 0.471. QMEKICTQQIQ [CCNB1IP1_Y125_Y125C] was tested, and the phosphorylation enrichment was 0.537. RFLRGYRQYAY [HLA-A_Y137_D140Y] was tested, and the phosphorylation enrichment was 0.577. DLVRPYVHKIL [SF3B1_Y570] was tested, and the phosphorylation enrichment was 0.534.

These sequences were tested against Fes (UniProt P07332) in the same assay as above.
Sequence of Fes (P07332 whole entry, looked up): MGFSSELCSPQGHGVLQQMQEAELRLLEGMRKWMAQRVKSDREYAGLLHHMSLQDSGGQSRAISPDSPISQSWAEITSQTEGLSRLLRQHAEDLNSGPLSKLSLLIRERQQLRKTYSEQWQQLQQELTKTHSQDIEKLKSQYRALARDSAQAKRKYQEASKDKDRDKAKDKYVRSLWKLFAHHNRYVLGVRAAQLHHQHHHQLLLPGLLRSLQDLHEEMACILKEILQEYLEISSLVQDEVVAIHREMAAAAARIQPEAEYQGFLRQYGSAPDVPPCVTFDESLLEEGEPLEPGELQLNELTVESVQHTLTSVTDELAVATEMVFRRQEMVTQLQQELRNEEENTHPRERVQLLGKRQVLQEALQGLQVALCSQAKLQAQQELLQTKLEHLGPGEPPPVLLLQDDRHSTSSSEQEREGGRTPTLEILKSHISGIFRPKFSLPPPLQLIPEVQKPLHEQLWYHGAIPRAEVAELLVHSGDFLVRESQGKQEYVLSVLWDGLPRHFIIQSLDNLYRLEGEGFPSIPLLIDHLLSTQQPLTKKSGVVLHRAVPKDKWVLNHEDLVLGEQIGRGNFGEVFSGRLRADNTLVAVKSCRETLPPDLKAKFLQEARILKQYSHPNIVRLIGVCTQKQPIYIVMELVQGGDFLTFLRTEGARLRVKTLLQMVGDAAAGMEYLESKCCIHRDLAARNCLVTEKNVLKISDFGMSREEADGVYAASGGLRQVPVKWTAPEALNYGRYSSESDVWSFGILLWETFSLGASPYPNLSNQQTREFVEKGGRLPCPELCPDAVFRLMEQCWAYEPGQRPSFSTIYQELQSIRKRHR
In the case of HRTLVYGGIFL [FBP1_Y259], the phosphorylation enrichment is reported as 1.38. AGADGYDYLAP [FOXL2_Y186_G187D] showed a phosphorylation enrichment of 0.99. YGSSSSGGAGG [RPA2_Y14_Y14S] was tested, and the phosphorylation enrichment was 0.535. Sequence QTWKTYVRQQQ [SFI1_Y164] has a phosphorylation enrichment of 1.02. With DALDNYVVRGV [PCCA_Y473_I475V] the phosphorylation enrichment was 0.823. With GFAIVYGTIIL [GPR179_Y460] the phosphorylation enrichment was 1.32. Work on IYRAAYFGVYD [SLC25A4_Y191] yielded a phosphorylation enrichment of 1.21. In the case of CTTSHYNFMCN [TP53_Y234_I232S_YF], the phosphorylation enrichment is reported as 0.967. Sequence LEAVSYSSRFA [RNLS_Y190_YF] has a phosphorylation enrichment of 0.773. FAKTQYPDVYA [CRX_Y63] gave a phosphorylation enrichment of 0.692. MSRDVYSTDYY [NTRK2_Y702] gave a phosphorylation enrichment of 0.842. Work on QAYSWYQHQRA [NDST1_Y714_R709Q] yielded a phosphorylation enrichment of 1.01. DGTESYLTVSS [PLK1_Y462] showed a phosphorylation enrichment of 0.954. In the case of IIWDSYTTNKM [GNB4_Y85], the phosphorylation enrichment is reported as 1.21. Sequence PMDTYYDSTRG [DYNC2H1_Y2231] has a phosphorylation enrichment of 1.31. For QSLEPYTKQQL [STAT3_Y640_V637L], the phosphorylation enrichment was 0.745. DRLASYLDKVP [KRT14_Y129_R134P] gave a phosphorylation enrichment of 0.912. TTSQPYRRLCS [USH2A_Y534_C536R] showed a phosphorylation enrichment of 0.866. Sequence NSFKFYMSDDI [ATRX_Y204_C200S_YF] has a phosphorylation enrichment of 1.28. Sequence NGSKGYAFVHF [PABPC5_Y147_YF] has a phosphorylation enrichment of 0.875. For APTSGYQEFVH [IL4R_Y575], the phosphorylation enrichment was 0.764. With RQQQDYWLKDV [ANPEP_Y600_I603K] the phosphorylation enrichment was 0.911. For LVRPPYSYLAL [FOXI1_Y126_S129L], the phosphorylation enrichment was 0.645. NTTIHYNYMCN [TP53_Y234_C229N] showed a phosphorylation enrichment of 1.06. Sequence ESDFTYSSSFE [SRPK2_Y427_YF] has a phosphorylation enrichment of 1.09. GISDEYHVIRR [GCDH_Y398_H403R] was tested, and the phosphorylation enrichment was 0.792. In the case of QMEKICTQQIQ [CCNB1IP1_Y125_Y125C], the phosphorylation enrichment is reported as 1.64. Work on RFLRGYRQYAY [HLA-A_Y137_D140Y] yielded a phosphorylation enrichment of 1.19. In the case of DLVRPYVHKIL [SF3B1_Y570], the phosphorylation enrichment is reported as 0.743.

These sequences were tested against Fyn (UniProt P06241) in the same assay as above.
Sequence of Fyn (P06241 whole entry, looked up): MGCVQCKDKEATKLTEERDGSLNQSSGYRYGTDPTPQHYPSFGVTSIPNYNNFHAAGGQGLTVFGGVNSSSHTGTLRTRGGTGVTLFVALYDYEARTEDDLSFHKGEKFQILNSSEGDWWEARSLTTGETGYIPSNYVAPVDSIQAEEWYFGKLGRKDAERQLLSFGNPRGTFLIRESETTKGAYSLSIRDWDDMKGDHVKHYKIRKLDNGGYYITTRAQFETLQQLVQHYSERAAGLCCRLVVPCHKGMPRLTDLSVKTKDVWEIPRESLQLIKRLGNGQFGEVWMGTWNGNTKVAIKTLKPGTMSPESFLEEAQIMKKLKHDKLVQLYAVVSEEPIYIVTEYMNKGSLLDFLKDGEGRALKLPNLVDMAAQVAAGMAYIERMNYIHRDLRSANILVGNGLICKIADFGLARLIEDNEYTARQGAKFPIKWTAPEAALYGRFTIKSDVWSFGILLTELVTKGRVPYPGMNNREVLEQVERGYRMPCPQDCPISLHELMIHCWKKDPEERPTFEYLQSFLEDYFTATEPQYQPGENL
Sequence HRTLVYGGIFL [FBP1_Y259] has a phosphorylation enrichment of 5.36. Work on AGADGYDYLAP [FOXL2_Y186_G187D] yielded a phosphorylation enrichment of 0.534. For YGSSSSGGAGG [RPA2_Y14_Y14S], the phosphorylation enrichment was 0.389. For QTWKTYVRQQQ [SFI1_Y164], the phosphorylation enrichment was 0.526. For DALDNYVVRGV [PCCA_Y473_I475V], the phosphorylation enrichment was 0.507. Sequence GFAIVYGTIIL [GPR179_Y460] has a phosphorylation enrichment of 0.431. Sequence IYRAAYFGVYD [SLC25A4_Y191] has a phosphorylation enrichment of 5.53. With CTTSHYNFMCN [TP53_Y234_I232S_YF] the phosphorylation enrichment was 0.484. With LEAVSYSSRFA [RNLS_Y190_YF] the phosphorylation enrichment was 0.474. Sequence FAKTQYPDVYA [CRX_Y63] has a phosphorylation enrichment of 0.469. MSRDVYSTDYY [NTRK2_Y702] gave a phosphorylation enrichment of 2.77. QAYSWYQHQRA [NDST1_Y714_R709Q] gave a phosphorylation enrichment of 0.516. Work on DGTESYLTVSS [PLK1_Y462] yielded a phosphorylation enrichment of 0.453. IIWDSYTTNKM [GNB4_Y85] gave a phosphorylation enrichment of 0.682. In the case of PMDTYYDSTRG [DYNC2H1_Y2231], the phosphorylation enrichment is reported as 1.43. QSLEPYTKQQL [STAT3_Y640_V637L] was tested, and the phosphorylation enrichment was 0.353. Work on DRLASYLDKVP [KRT14_Y129_R134P] yielded a phosphorylation enrichment of 0.481. With TTSQPYRRLCS [USH2A_Y534_C536R] the phosphorylation enrichment was 0.29. Sequence NSFKFYMSDDI [ATRX_Y204_C200S_YF] has a phosphorylation enrichment of 0.517. Sequence NGSKGYAFVHF [PABPC5_Y147_YF] has a phosphorylation enrichment of 0.469. Work on APTSGYQEFVH [IL4R_Y575] yielded a phosphorylation enrichment of 0.545. RQQQDYWLKDV [ANPEP_Y600_I603K] gave a phosphorylation enrichment of 0.305. LVRPPYSYLAL [FOXI1_Y126_S129L] was tested, and the phosphorylation enrichment was 0.438. NTTIHYNYMCN [TP53_Y234_C229N] showed a phosphorylation enrichment of 0.55. ESDFTYSSSFE [SRPK2_Y427_YF] gave a phosphorylation enrichment of 0.821. In the case of GISDEYHVIRR [GCDH_Y398_H403R], the phosphorylation enrichment is reported as 0.517. QMEKICTQQIQ [CCNB1IP1_Y125_Y125C] showed a phosphorylation enrichment of 0.486. RFLRGYRQYAY [HLA-A_Y137_D140Y] was tested, and the phosphorylation enrichment was 1.29. DLVRPYVHKIL [SF3B1_Y570] was tested, and the phosphorylation enrichment was 0.703.
